Bridge positions count the residues as written; N and C are the ends. Square brackets hold non-standard residues; d marks the D form. Ends that are not written are not given here. Pro(cis-4-CF3) = O=C(O)[C@@H]1C[C@H](C(F)(F)F)CN1; Oic = O=C(O)[C@@H]1C[C@@H]2CCCC[C@@H]2N1; PEG7 = NCCOCCOCCOCCOCCOCCOCCOCCC(=O)O; PEG6 = NCCOCCOCCOCCOCCOCCOCCC(=O)O; tBuAla = CC(C)(C)C[C@H](N)C(=O)O; Pen = CC(C)(S)[C@H](N)C(=O)O; Sar = CNCC(=O)O
T1: recombinant rat MASP1 active protease (amino acids 302-704, C-terminal His Tag) (rat, UniProt Q8CHN8 302-704)
T1 sequence: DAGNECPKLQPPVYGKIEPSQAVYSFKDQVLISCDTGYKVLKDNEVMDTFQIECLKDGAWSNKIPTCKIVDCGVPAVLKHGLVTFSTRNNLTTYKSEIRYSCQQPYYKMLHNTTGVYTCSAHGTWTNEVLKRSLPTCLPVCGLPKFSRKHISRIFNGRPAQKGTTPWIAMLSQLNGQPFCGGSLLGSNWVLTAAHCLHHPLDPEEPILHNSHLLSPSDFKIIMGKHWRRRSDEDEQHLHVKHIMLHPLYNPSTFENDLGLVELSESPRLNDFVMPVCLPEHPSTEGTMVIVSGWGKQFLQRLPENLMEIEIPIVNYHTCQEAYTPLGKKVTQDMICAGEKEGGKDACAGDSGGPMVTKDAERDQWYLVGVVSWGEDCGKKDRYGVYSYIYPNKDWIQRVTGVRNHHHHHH


Assays:
[1] = biological target: T1, recombinant rat MASP1 active protease …; test: cell-based or functional assay
[2] = biological target: recombinant rat MASP2 active protease (amino acids 296-685, C-terminal His Tag) (rat, UniProt Q9JJS8 296-685); test: cell-based or functional assay
Sequence of recombinant rat MASP2 active protease (amino acids 296-685, C-terminal His Tag) (Q9JJS8 other isoform, or with tags, fused parts or gaps limits assumed): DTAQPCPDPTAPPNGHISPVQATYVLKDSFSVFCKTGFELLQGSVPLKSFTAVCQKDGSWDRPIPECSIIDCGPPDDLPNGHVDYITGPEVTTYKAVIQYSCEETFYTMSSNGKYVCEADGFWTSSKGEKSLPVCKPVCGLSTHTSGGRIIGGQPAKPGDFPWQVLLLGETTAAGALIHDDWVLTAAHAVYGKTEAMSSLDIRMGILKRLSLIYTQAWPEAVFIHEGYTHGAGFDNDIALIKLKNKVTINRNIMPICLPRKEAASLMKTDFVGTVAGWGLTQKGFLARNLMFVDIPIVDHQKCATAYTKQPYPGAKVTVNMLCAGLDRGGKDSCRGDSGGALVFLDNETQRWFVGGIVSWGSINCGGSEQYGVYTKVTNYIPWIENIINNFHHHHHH

Binder | rat MASP1 IC50 [1] | rat MASP2 IC50 [2]
AICSRSLP[Oic]ICIPD-OH (disulfide 3-11; N-terminus assumed; SMILES CC[C@H](C)[C@H](NC(=O)[C@H](C)N)C(=O)N[C@H]1CSSC[C@@H](C(=O)N[C@H](C(=O)N2CCC[C@H]2C(=O)N[C@@H](CC(=O)O)C(=O)O)[C@@H](C)CC)NC(=O)[C@H]([C@@H](C)CC)NC(=O)[C@@H]2C[C@@H]3CCCC[C@@H]3N2C(=O)[C@@H]2CCCN2C(=O)[C@H](CC(C)C)NC(=O)[C@H](CO)NC(=O)[C@H](CCCNC(=N)N)NC(=O)[C@H](CO)NC1=O) [Example 153: AIC+SRSLP-(Oic)-IC+IPD-OH] | 40 nM | 50.3 nM
AICSRS[tBuAla]P[Pro(cis-4-CF3)]ICIPD-NH2 (disulfide 3-11; N-terminus assumed; SMILES CC[C@H](C)[C@H](NC(=O)[C@H](C)N)C(=O)N[C@H]1CSSC[C@@H](C(=O)N[C@H](C(=O)N2CCC[C@H]2C(=O)N[C@@H](CC(=O)O)C(N)=O)[C@@H](C)CC)NC(=O)[C@H]([C@@H](C)CC)NC(=O)[C@@H]2C[C@H](C(F)(F)F)CN2C(=O)[C@@H]2CCCN2C(=O)[C@H](CC(C)(C)C)NC(=O)[C@H](CO)NC(=O)[C@H](CCCNC(=N)N)NC(=O)[C@H](CO)NC1=O) [Example 158: AIC+SRS-((tBu)A)-P-((4-CF3)P)-IC+IPD-NH2] | 247 nM | 420 nM
[Sar]ICSRSLP[Oic]I[Pen]IP[PEG7]-NH2 (disulfide 3-11; N-terminus assumed; SMILES CC[C@H](C)[C@H](NC(=O)CNC)C(=O)N[C@H]1CSSC(C)(C)[C@@H](C(=O)N[C@H](C(=O)N2CCC[C@H]2C(=O)NCCOCCOCCOCCOCCOCCOCCOCCC(N)=O)[C@@H](C)CC)NC(=O)[C@H]([C@@H](C)CC)NC(=O)[C@@H]2C[C@@H]3CCCC[C@@H]3N2C(=O)[C@@H]2CCCN2C(=O)[C@H](CC(C)C)NC(=O)[C@H](CO)NC(=O)[C@H](CCCNC(=N)N)NC(=O)[C@H](CO)NC1=O) [Example 150: ((N-Me)G)-IC+SRSLP-(Oic)-I-(Pen)+IP-(PEG7(25 atoms))-NH2] | 120 nM | 53 nM
[Sar]ICSRS[tBuAla]PPI[Pen]IP-NH2 (disulfide 3-11; N-terminus assumed; SMILES CC[C@H](C)[C@H](NC(=O)CNC)C(=O)N[C@H]1CSSC(C)(C)[C@@H](C(=O)N[C@H](C(=O)N2CCC[C@H]2C(N)=O)[C@@H](C)CC)NC(=O)[C@H]([C@@H](C)CC)NC(=O)[C@@H]2CCCN2C(=O)[C@@H]2CCCN2C(=O)[C@H](CC(C)(C)C)NC(=O)[C@H](CO)NC(=O)[C@H](CCCNC(=N)N)NC(=O)[C@H](CO)NC1=O) [Example 156: ((N-Me)G)-IC+SRS-((tBu)A)-PPI-(Pen)+IP-NH2] | 21 nM | 16 nM
[Sar]ICSRSLP[Oic]I[Pen]IPD[PEG6]-NH2 (disulfide 3-11; N-terminus assumed; SMILES CC[C@H](C)[C@H](NC(=O)CNC)C(=O)N[C@H]1CSSC(C)(C)[C@@H](C(=O)N[C@H](C(=O)N2CCC[C@H]2C(=O)N[C@@H](CC(=O)O)C(=O)NCCOCCOCCOCCOCCOCCOCCC(N)=O)[C@@H](C)CC)NC(=O)[C@H]([C@@H](C)CC)NC(=O)[C@@H]2C[C@@H]3CCCC[C@@H]3N2C(=O)[C@@H]2CCCN2C(=O)[C@H](CC(C)C)NC(=O)[C@H](CO)NC(=O)[C@H](CCCNC(=N)N)NC(=O)[C@H](CO)NC1=O) [Example 146: ((N-Me)G)-IC+SRSLP-(Oic)-I-(Pen)+IPD-(PEG5(22 atoms))-NH2] | 110 nM | 68 nM

Reference: US20210246166A1 (Bayer, published 2021)
